Laboratory results from article PMC10999177, “miR‐1246 promotes osteosarcoma cell migration via NamiRNA‐enhancer network dependent on Argonaute 2”.

Molecular target: hAGO2 (Homo sapiens, UniProt Q9UKV8 1-859)
Assay: EMSA; 20 nM probe, binding buffer of cited ref. 28 (composition and pH not given), on ice 30 min; 5% native PAGE, 0.5x TBE, 100 V 50 min
Settings: protein: recombinant; tags: MBP-tag removed by thrombin; HisTrap purification (His tag implied); label: 5'-Cy5; single strand

hAGO2, sequence (Q9UKV8 whole entry): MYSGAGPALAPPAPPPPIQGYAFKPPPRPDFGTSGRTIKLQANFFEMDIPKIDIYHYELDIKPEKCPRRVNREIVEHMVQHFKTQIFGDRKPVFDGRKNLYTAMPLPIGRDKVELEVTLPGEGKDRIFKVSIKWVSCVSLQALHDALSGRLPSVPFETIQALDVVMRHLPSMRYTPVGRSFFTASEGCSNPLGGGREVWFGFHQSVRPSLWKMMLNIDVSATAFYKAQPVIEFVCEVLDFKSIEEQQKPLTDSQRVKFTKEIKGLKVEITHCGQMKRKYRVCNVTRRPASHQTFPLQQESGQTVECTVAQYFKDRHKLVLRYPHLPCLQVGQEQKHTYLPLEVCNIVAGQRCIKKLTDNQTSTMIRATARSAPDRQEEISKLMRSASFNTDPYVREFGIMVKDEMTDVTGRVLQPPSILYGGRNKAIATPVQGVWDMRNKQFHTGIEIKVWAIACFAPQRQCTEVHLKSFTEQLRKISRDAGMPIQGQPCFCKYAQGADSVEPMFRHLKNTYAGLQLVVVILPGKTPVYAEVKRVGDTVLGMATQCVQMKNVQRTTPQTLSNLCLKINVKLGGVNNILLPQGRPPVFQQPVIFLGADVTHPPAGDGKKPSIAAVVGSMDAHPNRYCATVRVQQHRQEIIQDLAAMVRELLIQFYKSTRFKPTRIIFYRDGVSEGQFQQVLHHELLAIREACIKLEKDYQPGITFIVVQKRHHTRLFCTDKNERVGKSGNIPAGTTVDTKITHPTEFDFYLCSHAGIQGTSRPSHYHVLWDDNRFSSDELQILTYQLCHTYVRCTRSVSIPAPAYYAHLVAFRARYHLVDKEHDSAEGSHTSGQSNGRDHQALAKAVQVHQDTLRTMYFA

Question: With AAUGGAUUUUUGGAGCAGG (ssRNA) [5'Cy5-miR-1246] as the binder, how does the Kd read?
Answer: Its Kd is 12.2 ± 1.8 nM.
